Source: US20240058275A1, “NANO-SILICA - IN YEAST PARTICLE (YP) DRUG ENCAPSULATION APPROACH FOR IMPROVED THERMAL AND HYDROLASE STABILITY OF YP DRUG DELIVERY FORMULATIONS” (UNIVERSITY OF MASSACHUSETTS, priority 2022, published 2024)

B1: Ovalbumin: ovalbumin protein payload (protein, UniProt P01012 2-386, looked up)
Ovalbumin: GSIGAASMEFCFDVFKELKVHHANENIFYCPIAIMSALAMVYLGAKDSTRTQINKVVRFDKLPGFGDSIEAQCGTSVNVHSSLRDILNQITKPNDVYSFSLASRLYAEERYPILPEYLQCVKELYRGGLEPINFQTAADQARELINSWVESQTNGIIRNVLQPSSVDSQTAMVLVNAIVFKGLWEKAFKDEDTQAMPFRVTEQESKPVQMMYQIGLFRVASMASEKMKILELPFASGTMSMLVLLPDEVSGLEQLESIINFEKLTEWTSSNVMEERKIKVYLPRMKMEEKYNLTSVLMAMGITDVFSSSANLSGISSAESLKISQAVHAAHAEINEAGREVVGSAEAGVDAASVSEEFRADHPFLFCIKHIATNAVLFFGRCVSP

Columns and labels:
[1] = Ensilication (trapping) efficiency of BSA within GPs, quantified by SDS-PAGE; type: physicochemical; details: TEOS pre-polymerized at pH 2, TEOS:rBSA ratios of 1.3 to 24.9
Protocol: The efficiency of ensilication of BSA within GPs was tested. […] The samples were mixed, incubated at room temperature for 30 minutes, frozen and lyophilized to remove solvent. The loading cycle was repeated by adding 10 μL of water to the dry fGP rBSA sample to draw payload within the matrix of the GP shell into the hollow GP cavity, the sample was mixed and lyophilized to remove solvent.
TEOS was mixed with 0.01 M HCl solution (pH 2). The mixture was mixed for 1 hour to achieve TEOS prepolymerization and formation of a single aqueous phase in which the TEOS was close to its gel point. Solutions with different ratios of TEOS and 0.01 M HCl were prepared to target TEOS:rBSA weight ratios from 0 to 24.9. […]
The ensilicated fGP-rBSA samples were washed three times with 0.9% saline. The ensilicated fGP rBSA pellets were evaluated by microscopy to assess efficient trapping of rBSA within the cavity of fGPs, and percent protein encapsulation was quantified by SDS-PAGE. […]
Acid catalyzed TEOS forms long, linear polymers that easily entangle and gel. […] The percent of BSA trapped in GPs was measured as described above.
GPs containing ensilicated fBSA were also prepared as described before at the optimal TEOS polymerization conditions with 0.01 M HCl (pH 2) for use as control. Percent of BSA trapped in GPs was measured as described above.

[2] = Encapsulation efficiency of proteins ensilicated in GPs with 100% TEOS; type: physicochemical; details: 100% TEOS prepolymerized at pH 2, SDS-PAGE
Protocol: Dry GPs were mixed with a solution of 25 mg/mL protein in water (4 μL protein solution per mg GP, 100 μg protein per mg GP), incubated to allow for complete absorption of protein solution inside the hollow cavity of GPs, and then the samples were frozen and lyophilized. To maximize protein incorporation into GPs, the dry GP-OVA samples were hydrated with 2 μL water per mg GP, mixed, frozen, and lyophilized. TEOS (Millipore Sigma, Burlington, MA, USA; #86578, ≥99% purity, density 0.933 g/mL) was mixed with a 0.01 M HCl (pH 2) solution at a volume ratio of 2:1 (v/v) aqueous HCl:TEOS and the sample was incubated at 20° C. with constant mixing for one hour to allow for partial polymerization of TEOS. Then, the partially polymerized single phase TEOS solution was added to dry GP-protein (4 μL per mg GP) and the sample was incubated for one hour. GP ensilicated protein samples were suspended in 0.9% sterile saline (5 mg GP/mL), centrifuged and the supernatants were collected to quantify unencapsulated protein. The samples were then washed three more times in 0.9% sterile saline, suspended in 0.9% saline at 5 mg GP/mL and stored at 20° C.
GP ensilicated protein was extracted and quantified by following the procedure described above for BSA. Proteins in the GP supernatants and pellets were quantified by SDS-PAGE.

Row | Molecule | percent of rBSA trapped in fGPs [1] [%] | % encapsulation efficiency in GPs [2] [%]
1 | rBSA: rhodamine labeled BSA payload | > 80 | –
2 | Transferrin: transferrin protein payload | – | 92 ± 8
3 | B1 | – | 97 ± 3
